# Measured values published in the supplement of paper PMC10126150.
# ± gives the standard deviation of the averaged measurements.
# System: ATP
# Test: switch fluorescence ratio, 500 uM ATP over buffer (Cy3 cluster intensity, sum of 5 cycles each) (fold (ratio)); higher = stronger signal-on switching upon ATP binding; sequences stand for … in TCGTCGGCAGCGTCAGATGTGTATAAGAGACAGTTTTTTTTTTTTTTTTTTTTTTTTT…TC
# Settings: aptamer strand: ATP DNA aptamer (quencher-CACCTGGGGGAGTATTGCGGAGGAAGG + anchor), 100 nM annealed; ATP concentration: 500 uM
# Procedure, shortened: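 Values give the fluorescence ratio for each switch-domain sequence, averaged from per-cluster ratios of summed target-cycle to summed buffer-cycle Cy3 intensity. The Cy3-labelled switching-strand clusters sat on a modified Illumina MiSeq flow-cell, were annealed to 100 nM quencher-labelled ATP aptamer, and were imaged in selection buffer, then after 15 min with 500 uM ATP at 22 °C. Five cycles ran with NaOH stripping and re-annealing between them, and clusters outside 100-1000 RFU were excluded.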
# 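Note: ATP exposure 15 min at 22 °C before imaging.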
row,Sequence,switch fluorescence ratio
1,CCAGCACTTT,1.008 ± 0.002
2,AATTGTTGTT,0.998 ± 0.033
3,TTTGGGGGAG,1.01 ± 0.027
4,GTAAAAGTTT,0.979 ± 0.01
5,GAATTAAACG,1.02 ± 0.024
6,TAGAAAAGGT,0.974 ± 0.028
7,ATTATTGGGG,0.9642 ± 0.0086
8,GTTCAGTAGG,0.9677 ± 0.0077
9,AGTTTCTTAT,0.995 ± 0.028
10,GCGATGGGGA,1.012 ± 0.0098
11,AAGGTCATTT,1 ± 0.034
12,ATATTCATCT,0.9861 ± 0.0056
13,TTATGAAGGT,1.02 ± 0.06
14,AGCATGGTAG,1.02 ± 0.031
15,GGTTATAGAC,0.994 ± 0.012
16,GGGCGGGTTT,1.005 ± 0.0026
17,GCTAGTGCTT,0.956 ± 0.011
18,TTTGATGTTT,1 ± 0.031
19,TGTTTGTGGT,0.987 ± 0.023
20,TTTATTAGAT,0.982 ± 0.022
21,TATCTACGGG,1.036 ± 0.0013
22,GGGGCTAACG,1.02 ± 0.03
23,TATAAAATTC,1.24 ± 0.43
24,TGTAGTTTTT,0.961 ± 0.025
25,ATGTTTATCT,0.979 ± 0.044

row,Sequence,switch fluorescence ratio
1,CCGGGCCAGG,1.255 ± 0.0081
2,CGTTTAACAT,1.01 ± 0.014
3,TACTCGGGCT,1.017 ± 0.0044
4,AGATGTGTAG,1.04 ± 0.012
5,GCTGATTTAT,0.982 ± 0.018
6,TATTTGACG,1.02 ± 0.035
7,CTGTATATGG,0.985 ± 0.042
8,TTTTCAGTTT,1.022 ± 0.01
9,CAAGAAATCT,1.0078 ± 0.0005
10,GCTTTAACAC,1.03 ± 0.014
11,AGGATACATT,1.02 ± 0.02
12,CCATTGGGTA,1.01 ± 0.036
13,TCAAAGGGTC,1 ± 0.088
14,AGGGGTCAGG,1.022 ± 0.0055
15,AGCACGGGGG,1.19 ± 0.28
16,TGTTAGGGG,1 ± 0.049
17,ATGTGTAGGC,1.02 ± 0.026
18,TTTTGGCAGT,1.09 ± 0.013
19,GGTTGACTTG,1.01 ± 0.059
20,TCTGTAAGGT,0.986 ± 0.02
21,GGGTGCGTTG,1.04 ± 0.024
22,CGCGGGGGGG,1 ± 0.025
23,TATGCGGACA,1.04 ± 0.027
24,CTGAATTAGT,1.01 ± 0.019
25,AATCAGCGGT,1.02 ± 0.028

row,Sequence,switch fluorescence ratio
1,AAAAGAATGG,0.971 ± 0.043
2,GATTGAGGAA,0.9864 ± 0.0061
3,GGGGTACGGC,1.03 ± 0.041
4,GCTAAATTCC,1.11 ± 0.027
5,CGTTCAAGTA,0.973 ± 0.056
6,ACACTCATGG,1.03 ± 0.068
7,CTTAGCCGGG,0.981 ± 0.032
8,AGGATATGGA,0.997 ± 0.022
9,TTATGTGACT,1.01 ± 0.021
10,ATTGCCCGTT,1.09 ± 0.21
11,AAATATTATA,1.02 ± 0.031
12,GGTCCTGCAA,1.76 ± 1.1
13,TCGCAGGATA,1.08 ± 0.012
14,ATGCCATGTG,1 ± 0.022
15,GTGGAGGGTA,1.01 ± 0.029
16,AGGGGATTAC,1.062 ± 0.0014
17,AATGTGGTAA,0.959 ± 0.043
18,GGGGATGGAA,1.02 ± 0.013
19,AAATCAGGTT,0.972 ± 0.016
20,ATTTATTCCT,1.05 ± 0.015
21,CTCGCTTTTT,1.2 ± 0.29
22,TTGAAGTAGC,1.01 ± 0.044
23,GGGGGCATCG,1.01 ± 0.018
24,GTTTGGCGT,1.03 ± 0.045
25,CAAACGTGTG,0.991 ± 0.041

row,Sequence,switch fluorescence ratio
1,CGTCACATAA,1.22 ± 0.016
2,TAAAAGTATT,1.03 ± 0.068
3,TATTTTTCTT,0.975 ± 0.041
4,ATGGTACACC,1.04 ± 0.013
5,CCAATTAATC,1.03 ± 0.032
6,TTAAAGGGGT,1.05 ± 0.1
7,ATGGCAGCAT,1.012 ± 0.0057
8,CCTTACTTTT,0.998 ± 0.036
9,TGTTAAGGGA,1 ± 0.02
10,ATTAAGAGTA,0.961 ± 0.012
11,AAAGGATGAG,0.979 ± 0.019
12,TGCAAAAAGG,1.03 ± 0.014
13,TTAAAGGATT,1.01 ± 0.052
14,GGGGTGGAGG,1.02 ± 0.017
15,TACATCATCG,1.14 ± 0.016
16,CGCGGACACG,1.01 ± 0.048
17,GGGGATTAGA,0.9846 ± 0.0072
18,CTCAATCGGG,1.04 ± 0.021
19,TTATCACTGG,1 ± 0.07
20,ATTTTCAGTT,1.01 ± 0.026
21,ATTTTTAGAA,1.03 ± 0.013
22,GTTTTAGGTT,0.993 ± 0.023
23,GCCTTGTTCA,0.993 ± 0.022
24,CCGGGGGGGA,1.13 ± 0.23
25,CCTGGAGTTA,1.04 ± 0.1

row,Sequence,switch fluorescence ratio
1,GGTTTTAGAT,0.9977 ± 0.0072
2,TCAAACGGGG,1 ± 0.045
3,CCTTGGCCGA,1.17 ± 0.0041
4,CACGGGATGC,1.58 ± 0.12
5,CACTTATTCT,0.973 ± 0.017
6,GTGTCAGCGG,0.9762 ± 0.0088
7,TGAGCGAGTG,0.957 ± 0.028
8,ATGAGGAAGT,0.987 ± 0.023
9,AGTAAAGCGG,1 ± 0.027
10,GTTTGTGGGA,0.974 ± 0.019
11,ATGGAAGGAT,1.005 ± 0.0065
12,GATTCAGGAA,1 ± 0.047
13,GGGATAATGG,0.968 ± 0.032
14,AGGGCTAGTA,1 ± 0.034
15,ATTGAGGGTC,0.986 ± 0.018
16,ATGGCCAGCA,1.01 ± 0.03
17,GTTTTTGTGA,0.9693 ± 0.0079
18,GCATGCGGCT,1.03 ± 0.1
19,GGGATCTCGG,1.05 ± 0.0066
20,TTCGGGGCCA,0.991 ± 0.013
21,AAAAGTGGGC,1.07 ± 0.081
22,TATTGGGGGG,0.999 ± 0.025
23,GATGAGCCGG,1 ± 0.027
24,TTATGAACTT,1 ± 0.035
25,AAAATGCGTG,0.966 ± 0.059

row,Sequence,switch fluorescence ratio
1,TTTCTTTTTG,0.99 ± 0.034
2,GCTCAAGCCT,1.06 ± 0.028
3,GTATTAATAT,1.01 ± 0.04
4,GTCCAAAAAA,1.08 ± 0.067
5,TTTAGGCGGG,1.05 ± 0.044
6,ATACAAGTAT,0.995 ± 0.025
7,AAAAGTCCGC,1.45 ± 0.062
8,GATTCCAGTT,1.01 ± 0.032
9,CAGGTTCACC,1.03 ± 0.012
10,GTTCACCGGG,1.141 ± 0.0051
11,GATTGCGGGC,1.03 ± 0.011
12,GGGTTGCCCT,0.982 ± 0.033
13,GGGTCTAAG,0.987 ± 0.041
14,GGAGATTTTG,1 ± 0.042
15,TTTTGAGTCG,1.01 ± 0.033
16,TTTTGAGACT,0.96 ± 0.0084
17,TTTATAACAG,0.982 ± 0.021
18,GTTTTGAGGT,1.02 ± 0.028
19,GTCGTCTAAG,0.973 ± 0.051
20,TTGTTATTTA,0.9903 ± 0.0019
21,ATTGCTATGG,1.01 ± 0.016
22,ACGGTTATTT,1.072 ± 0.01
23,TGGATACACT,1.04 ± 0.032
24,TTTCTTCAGC,1.21 ± 0.19
25,GATGGCTGTG,1.021 ± 0.01

row,Sequence,switch fluorescence ratio
1,TTAAAGAGGC,0.993 ± 0.032
2,TGGTATCGGA,0.977 ± 0.021
3,AAATAAACA,0.999 ± 0.023
4,CGGTAGATCG,1 ± 0.073
5,TTGGGGCGGG,1.01 ± 0.039
6,TGTTGTAGGA,0.997 ± 0.015
7,CAAGTCCATT,1.01 ± 0.034
8,ATTGTGCTTT,1.04 ± 0.024
9,CCAAGGTTCG,0.945 ± 0.053
10,AGAGGTAGGA,0.979 ± 0.016
11,TTCGGTTGGA,0.984 ± 0.017
12,CCGCATTGGG,3.35 ± 0.93
13,TTTTTTATGT,0.995 ± 0.029
14,GTTATATTGG,0.992 ± 0.022
15,AGGTGGTGGG,1.01 ± 0.014
16,TTTGGGGACG,1.01 ± 0.019
17,TAAATAAGTT,1.004 ± 0.0097
18,GACTGGGGCA,1.017 ± 0.0053
19,TCCAACTGCT,1.037 ± 0.0035
20,ACGACTTTTG,0.995 ± 0.042
21,ATATAGATTG,1.03 ± 0.038
22,GGGTTGCTGT,1.03 ± 0.1
23,ATAATAAGCT,1.016 ± 0.0073
24,GCGATACTGT,3.08 ± 0.17
25,GCTTTCTGCG,1.05 ± 0.042

row,Sequence,switch fluorescence ratio
1,GGAATTGGCG,1.03 ± 0.023
2,CATAAAACGG,1.0263 ± 8.3e-05
3,TTTCGCACTG,1.1 ± 0.018
4,AAATAACTAC,1.08 ± 0.015
5,ACGGATGTTT,0.997 ± 0.022
6,TATGGGTTGG,1.02 ± 0.04
7,AATGGTGCGA,0.975 ± 0.012
8,ATAAAGCTCT,1.01 ± 0.019
9,ACGTCAAGAG,1.45 ± 0.0026
10,TTACACCTTT,1.02 ± 0.0085
11,GTGATAGGGG,0.994 ± 0.053
12,AGTGGTGGGT,1.01 ± 0.035
13,ATCGGTGAGG,0.971 ± 0.03
14,TCGGAGTACT,1.16 ± 0.03
15,GATGTTAGTG,1.003 ± 0.008
16,CAAGGGGTTT,0.99 ± 0.033
17,TTTGATCGTT,1.01 ± 0.011
18,GGTTGTGGGG,0.998 ± 0.035
19,AGGATGGTGG,1.02 ± 0.037
20,GGGCGGGGCG,0.938 ± 0.063
21,GGTTAGGGG,0.99 ± 0.028
22,TGACAGTGAA,1.01 ± 0.02
23,ACTTTGAGAT,1.03 ± 0.012
24,TTTTGATCAT,0.98 ± 0.013
25,CTGAGTCGTG,1 ± 0.066
